B1: Transmembrane 4 L6 family member 5 (Homo sapiens), O14894 (parent)
chain: MCTGKCARCVGLSLITLCLVCIVANALLLVPNGETSWTNTNHLSLQVWLMGGFIGGGLMVLCPGIAAVRAGGKGCCGAGCCGNRCRMLRSVFSSAFGVLGAIYCLSVSGAGLRNGPRCLMNGEWGYHFEDTAGAYLLNRTLWDRCEAPPRVVPWNVTLFSLLVAASCLEIVLCGIQLVNATIGVFCGDCRKKQDTPH
B2: Transmembrane 4 L6 family member 5 (Homo sapiens), O14894 (parent)
chain: B1 chain
partner: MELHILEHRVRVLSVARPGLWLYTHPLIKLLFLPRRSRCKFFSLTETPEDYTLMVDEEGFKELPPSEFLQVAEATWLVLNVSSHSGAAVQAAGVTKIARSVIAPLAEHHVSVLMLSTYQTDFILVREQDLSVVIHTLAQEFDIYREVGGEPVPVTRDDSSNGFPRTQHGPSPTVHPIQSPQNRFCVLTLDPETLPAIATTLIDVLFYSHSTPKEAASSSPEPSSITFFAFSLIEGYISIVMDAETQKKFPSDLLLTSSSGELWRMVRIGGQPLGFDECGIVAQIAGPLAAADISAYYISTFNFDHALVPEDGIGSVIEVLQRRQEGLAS
B3: Transmembrane 4 L6 family member 5 (Homo sapiens), O14894 (parent)
chain: B1 chain
partner: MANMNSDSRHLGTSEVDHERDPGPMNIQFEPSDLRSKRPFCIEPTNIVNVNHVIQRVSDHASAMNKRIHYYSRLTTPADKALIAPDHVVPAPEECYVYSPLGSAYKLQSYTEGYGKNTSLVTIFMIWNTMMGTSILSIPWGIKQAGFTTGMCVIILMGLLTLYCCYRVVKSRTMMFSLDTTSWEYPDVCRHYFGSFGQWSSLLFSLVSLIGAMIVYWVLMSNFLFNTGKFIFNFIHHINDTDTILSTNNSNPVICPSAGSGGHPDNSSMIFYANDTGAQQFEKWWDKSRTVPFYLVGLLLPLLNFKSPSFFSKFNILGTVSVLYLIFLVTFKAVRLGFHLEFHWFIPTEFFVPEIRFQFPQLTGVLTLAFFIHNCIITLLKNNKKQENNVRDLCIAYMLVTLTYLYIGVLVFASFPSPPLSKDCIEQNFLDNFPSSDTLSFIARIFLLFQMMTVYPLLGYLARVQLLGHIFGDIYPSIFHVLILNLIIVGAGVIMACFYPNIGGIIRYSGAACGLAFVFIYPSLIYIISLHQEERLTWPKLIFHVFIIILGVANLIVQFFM

Variants of: B1
Settings: with mtor_human MTOR

| Variant | effect of a mutation on the interaction |
| --- | --- |
| W124A | with no effect |
| Y126S | with no effect |
| N138A | with no effect |

Variants of: B2
Settings: with cast1_human CASTOR1, Q8WTX7

| Variant | effect of a mutation on the interaction |
| --- | --- |
| W124A | with no effect |

Variants of: B3
Settings: with SLC38A9, Q8NBW4

| Variant | effect of a mutation on the interaction |
| --- | --- |
| W124A | with no effect |
